Measurements from paper PMC5841405.

Columns and labels:
[1] = target: LIC1_(433–458) (human); experiment: ITC; protein or peptide in the syringe titrated into the protein in the cell; 20 mM HEPES pH 7.5, 100 mM NaCl, 0.25 mM TCEP; temperature listed in the figures (20 °C for most titrations)
[2] = target: MBP-LIC1FL (human); experiment: as above
[3] = target: MBP-LIC1_(1–461) (human); experiment: as above
[4] = target: Hook1_(11–443) (human) (UniProt Q9UJC3); experiment: ITC; MBP-LIC1FL in the syringe, Hook1_(11–443) in the cell; 30 °C; 20 mM HEPES pH 7.5, 100 mM NaCl, 0.25 mM TCEP
Chain of Hook1_(11–443) (human) (Q9UJC3 11-443): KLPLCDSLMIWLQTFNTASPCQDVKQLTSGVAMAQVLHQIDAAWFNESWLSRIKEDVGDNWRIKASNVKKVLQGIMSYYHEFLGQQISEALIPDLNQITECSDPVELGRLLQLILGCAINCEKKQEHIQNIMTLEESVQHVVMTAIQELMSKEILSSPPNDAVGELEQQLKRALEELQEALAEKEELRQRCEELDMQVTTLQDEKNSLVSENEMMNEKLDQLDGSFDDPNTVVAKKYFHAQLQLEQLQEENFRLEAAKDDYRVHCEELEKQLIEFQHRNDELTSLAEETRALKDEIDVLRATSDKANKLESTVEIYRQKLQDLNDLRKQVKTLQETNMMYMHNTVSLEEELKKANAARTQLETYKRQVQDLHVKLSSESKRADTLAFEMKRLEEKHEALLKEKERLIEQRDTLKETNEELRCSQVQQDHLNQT

Chain of Hook1_(11–166) (Q9UJC3 11-166): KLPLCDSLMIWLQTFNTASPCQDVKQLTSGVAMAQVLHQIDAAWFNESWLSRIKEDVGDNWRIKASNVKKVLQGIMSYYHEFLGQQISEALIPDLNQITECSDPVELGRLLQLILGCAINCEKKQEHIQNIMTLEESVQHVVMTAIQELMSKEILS

Kd [1]	Kd [2]	stoichiometry N [2]	Kd [3]	Kd [4]	stoichiometry N [4]	Substance
15.7 µM	12.7 µM	1	10.1 µM			Hook1_(11–166) (from UniProt Q9UJC3-1 11-166) (domain or fragment)
				8.1 µM	1	MBP-LIC1FL (natural protein)
	12.9 µM	1				Hook1_(1–239)GCN4 (from UniProt Q9UJC3-1 1-239)
